One data set concerns the target T1, NAC050-N (Arabidopsis thaliana, UniProt Q9SQX9 1-184).
T1 sequence: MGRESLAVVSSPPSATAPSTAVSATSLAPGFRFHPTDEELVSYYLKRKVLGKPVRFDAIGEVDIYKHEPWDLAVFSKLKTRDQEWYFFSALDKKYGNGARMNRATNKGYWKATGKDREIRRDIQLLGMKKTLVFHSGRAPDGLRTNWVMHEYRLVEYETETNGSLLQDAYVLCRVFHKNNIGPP
As to the kind of experiment: EMSA; EMSA: 10 mM Tris-HCl pH 7.5, 50 mM NaCl, 1 mM EDTA, 5% glycerol, 1 mM DTT, 25 C, 30 min, 20 ng DNA + 1 ug protein; ITC: 20 mM Tris-HCl pH 7.5, 150 mM NaCl, 25 C, 5 uM protein, 100 uM DNA. The note with it: protein: recombinant; tags: MBP; chain copies: 2; label: Cy5 at 5' of strand 1; blunt. (Mobility shift assays separate free from complexed probe on a gel.)

Another data set has as its target T2, TRB1;NAC050-N (Arabidopsis thaliana;Arabidopsis …, UniProt Q8VWK4;Q9SQX9 1-300;1-184, |).
T2 sequence 1: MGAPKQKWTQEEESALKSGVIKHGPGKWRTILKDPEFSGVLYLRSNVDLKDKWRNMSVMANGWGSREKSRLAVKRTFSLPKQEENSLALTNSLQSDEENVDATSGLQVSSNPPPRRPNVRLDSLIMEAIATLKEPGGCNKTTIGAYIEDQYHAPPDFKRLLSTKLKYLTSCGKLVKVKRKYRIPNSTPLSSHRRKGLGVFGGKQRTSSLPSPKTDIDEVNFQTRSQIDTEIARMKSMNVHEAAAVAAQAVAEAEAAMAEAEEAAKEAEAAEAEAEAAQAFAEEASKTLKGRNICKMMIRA
T2 sequence 2: T1 sequence
As to the kind of experiment: EMSA; TRB1 added to NAC050-N; larger complex; EMSA: 10 mM Tris-HCl pH 7.5, 50 mM NaCl, 1 mM EDTA, 5% glycerol, 1 mM DTT, 25 C, 30 min, 20 ng DNA + 1 ug protein; ITC: 20 mM Tris-HCl pH 7.5, 150 mM NaCl, 25 C, 5 uM protein, 100 uM DNA. The following applies: protein: recombinant;recombinant; tags: His;MBP; label: Cy5 at 5' of strand 1; blunt.

B1: Probe 2 (P2) (dsDNA)
DNA 1: GACGCTTGAGCCTCAAGAAAT
DNA 2: ATTTCTTGAGGCTCAAGCGTC
For B1, the binding result with NAC050-N and with TRB1;NAC050-N was “binds” each time.
